Patent publication US20230303698A1 (published 2023)
Like-named read-outs stand apart in the source and are kept apart here.

What was measured:
[1] = molecular target: T1, human PSMA (human, UniProt Q04609 1-750); assay: FACS binding to LNCaP cells
[2] = molecular target: T2, human 4-1BB (human, UniProt Q07011 24-255); assay: FACS
[3] = molecular target: T2, human 4-1BB; assay: FACS; FIG. 6
[4] = molecular target: T2, human 4-1BB; assay: FACS; FIG. 5
[5] = molecular target: T2, human 4-1BB; assay: FACS; panel A
[6] = molecular target: T2, human 4-1BB; assay: FACS; remark: listed apart in the source
[7] = molecular target: T2, human 4-1BB; assay: FACS; panel B
[8] = molecular target: T2, human 4-1BB; assay: FACS; panel A; remark: listed apart in the source
[9] = molecular target: T2, human 4-1BB; assay: FACS; panel C
[10] = molecular target: T2, human 4-1BB; assay: FACS; panel B; remark: listed apart in the source
[11] = molecular target: human CLDN18.2; assay: FACS binding to NUGC-4 cells
[12] = molecular target: T2, human 4-1BB; assay: FACS; remark: listed apart in the source
[13] = molecular target: T2, human 4-1BB; assay: FACS; remark: listed apart in the source
[14] = molecular target: T3, cynomolgus monkey 4-1BB (cynomolgus monkey); assay: FACS
T3 chain: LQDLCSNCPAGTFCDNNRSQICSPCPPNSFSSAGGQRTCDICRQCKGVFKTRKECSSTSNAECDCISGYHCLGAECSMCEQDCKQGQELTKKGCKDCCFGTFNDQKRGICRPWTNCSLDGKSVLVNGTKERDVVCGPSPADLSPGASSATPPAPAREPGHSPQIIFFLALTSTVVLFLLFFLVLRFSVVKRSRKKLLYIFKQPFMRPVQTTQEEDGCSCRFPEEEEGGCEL

[15] = molecular target: T4, human PD-L1 (human, UniProt Q9NZQ7 19-290); assay: FACS; panel C
[16] = molecular target: T4, human PD-L1; assay: FACS; panel A
[17] = molecular target: T4, human PD-L1; assay: FACS; panel B
[18] = molecular target: T4, human PD-L1; assay: FACS binding to CHO-K1/hPD-L1 cells
[19] = molecular target: T5, human OX40 (human, UniProt P43489 29-277); assay: FACS
T5 chain: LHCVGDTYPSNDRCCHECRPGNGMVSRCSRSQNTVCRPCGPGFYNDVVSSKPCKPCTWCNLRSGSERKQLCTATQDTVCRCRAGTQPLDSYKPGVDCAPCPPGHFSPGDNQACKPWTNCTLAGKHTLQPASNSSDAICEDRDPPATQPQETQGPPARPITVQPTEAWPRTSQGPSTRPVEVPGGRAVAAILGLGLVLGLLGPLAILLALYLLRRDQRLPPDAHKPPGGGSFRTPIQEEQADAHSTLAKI

[20] = molecular target: T6, cynomolgus monkey OX40-His protein (cynomolgus monkey); assay: ELISA
T6 chain: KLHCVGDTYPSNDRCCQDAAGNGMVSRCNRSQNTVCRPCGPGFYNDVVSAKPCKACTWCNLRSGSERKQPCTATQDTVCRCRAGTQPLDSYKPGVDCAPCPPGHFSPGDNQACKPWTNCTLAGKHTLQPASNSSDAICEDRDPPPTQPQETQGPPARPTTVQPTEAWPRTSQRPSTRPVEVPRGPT

[21] = molecular target: T1, human PSMA; assay: FACS binding to LNCaP cells; remark: listed apart in the source

T1 sequence (Q04609 whole entry): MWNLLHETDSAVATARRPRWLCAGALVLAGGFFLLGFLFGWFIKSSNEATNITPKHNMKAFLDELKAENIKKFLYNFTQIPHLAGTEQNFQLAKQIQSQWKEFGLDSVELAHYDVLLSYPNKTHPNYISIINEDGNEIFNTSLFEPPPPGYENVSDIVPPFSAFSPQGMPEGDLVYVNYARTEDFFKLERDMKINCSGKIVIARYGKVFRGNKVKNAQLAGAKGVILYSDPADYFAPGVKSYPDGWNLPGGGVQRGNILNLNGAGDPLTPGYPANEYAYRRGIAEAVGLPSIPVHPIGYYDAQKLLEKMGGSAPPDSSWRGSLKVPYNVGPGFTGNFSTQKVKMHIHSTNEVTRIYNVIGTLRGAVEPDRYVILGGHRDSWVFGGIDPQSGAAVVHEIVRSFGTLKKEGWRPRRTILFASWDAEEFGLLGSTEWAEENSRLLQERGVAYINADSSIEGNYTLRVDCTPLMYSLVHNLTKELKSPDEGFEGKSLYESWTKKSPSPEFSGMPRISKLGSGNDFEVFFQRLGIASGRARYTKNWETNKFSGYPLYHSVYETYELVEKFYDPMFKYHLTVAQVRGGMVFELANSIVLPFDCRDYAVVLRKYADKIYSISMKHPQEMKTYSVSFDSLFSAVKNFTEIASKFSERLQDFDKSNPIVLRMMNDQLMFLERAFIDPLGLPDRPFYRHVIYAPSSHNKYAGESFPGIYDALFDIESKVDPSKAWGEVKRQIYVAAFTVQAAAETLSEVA
T4 sequence (Q9NZQ7 19-290): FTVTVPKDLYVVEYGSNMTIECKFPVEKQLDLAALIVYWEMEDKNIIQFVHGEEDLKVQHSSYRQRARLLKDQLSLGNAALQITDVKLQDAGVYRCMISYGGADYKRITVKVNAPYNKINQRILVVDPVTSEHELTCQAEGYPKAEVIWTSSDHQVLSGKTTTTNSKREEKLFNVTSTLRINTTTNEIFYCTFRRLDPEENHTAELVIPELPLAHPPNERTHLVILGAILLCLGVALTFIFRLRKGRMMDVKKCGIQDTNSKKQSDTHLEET

B1: PR003557 (bispecific antibody)
light: DIQMTQSPSSLSASIGDRVTITCRASQSINSYLNWYQQKPGKAPKLLIYTASSLLSGVPSRFSASGSWTDFSLTISSLQPEDFATYYCQQSFSTPYTFGQGTNLEIKRTVAAPSVFIFPPSDEQLKSGTASVVCLLNNFYPREAKVQWKVDNALQSGNSQESVTEQDSKDSTYSLSSTLTLSKADYEKHKVYACEVTHQGLSSPVTKSFNRGEC
heavy: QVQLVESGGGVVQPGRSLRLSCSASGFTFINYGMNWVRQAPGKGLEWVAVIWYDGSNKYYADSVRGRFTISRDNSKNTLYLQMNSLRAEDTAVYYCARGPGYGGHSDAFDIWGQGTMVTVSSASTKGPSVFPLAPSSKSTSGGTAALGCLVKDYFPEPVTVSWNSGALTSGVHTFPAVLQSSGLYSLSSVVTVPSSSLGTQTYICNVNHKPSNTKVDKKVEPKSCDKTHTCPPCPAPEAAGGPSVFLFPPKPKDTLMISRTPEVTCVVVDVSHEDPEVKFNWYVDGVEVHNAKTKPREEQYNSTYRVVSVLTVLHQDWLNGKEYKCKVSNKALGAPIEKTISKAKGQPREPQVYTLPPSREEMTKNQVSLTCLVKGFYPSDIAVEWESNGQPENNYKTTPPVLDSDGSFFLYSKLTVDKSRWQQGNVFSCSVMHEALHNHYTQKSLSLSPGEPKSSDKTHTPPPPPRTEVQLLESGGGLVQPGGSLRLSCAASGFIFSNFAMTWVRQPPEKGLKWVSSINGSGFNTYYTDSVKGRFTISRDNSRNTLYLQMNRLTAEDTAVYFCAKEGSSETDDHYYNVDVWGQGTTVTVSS
B1 showed an EC50 [1] of 0.876 nM and an EC50 [2] of 0.951 nM.

B2: Anti-4-1BB monoclonal antibody urelumab analog (antibody, V domains shown)
VH: QVQLQQWGAGLLKPSETLSLTCAVYGGSFSGYYWSWIRQSPEKGLEWIGEINHGGYVTYNPSLESRVTISVDTSKNQFSLKLSSVTAADTAVYYCARDYGPGNYDWYFDLWGRGTLVTVSS
VL: EIVLTQSPATLSLSPGERATLSCRASQSVSSYLAWYQQKPGQAPRLLIYDASNRATGIPARFSGSGSGTDFTLTISSLEPEDFAVYYCQQRSNWPPALTFGGGTKVEIKR
Binder B2 has an EC50 [3] of 0.459 nM, an EC50 [4] of 0.459 nM and an EC50 [5] of 0.424 nM. The EC50 [6] was 1.51 nM, the EC50 [7] was 0.347 nM and the EC50 [8] was 1.01 nM. For the same binder, the EC50 [9] was 1.51 nM and the EC50 [10] was 0.794 nM.

B3: PR002726, anti-CLDN18.2 monoclonal antibody 13E6F4 hIgG1 (antibody, V domains shown)
VH: EVQLLESGGGLVQPGGSLRLSCAASGFTFSSFVMSWVRQAPGKGLEWVSTISGSGRSTYYADSVKGRFTISRDNSKNTLHLQMNSLRAEDTAVYYCAKDAAAAGTKFDYWGQGTLVTVSS
VL: EIVLTQSPATLSLSPGERATLSCRASQSVSSYLAWYQQKPGQAPRLLIYDASNRATGIPARFSGSGSGTDFTLTISSLEPEDFAVYYCQQRSNWPLTFGGGTKVEIKR
In the case of B3, the EC50 [11] is reported as 4.98 nM.

B4: PR001760, anti-4-1BB heavy-chain antibody 1016P0011G10 (antibody, V domains shown)
VH: EVQLVESGGGVVQPGGSLRLSCAASGFTFSNYAMTWVRQAPEKGLEWVSSISGSGVSTYYADSVKGRFTISRDNSKNTLYLQMTRLTAEDTAVYFCAKEGSSETDDHYYNVDVWGQGTTVTVSS
In the case of B4, the EC50 [12] is reported as 3.76 nM, the EC50 [13] is reported as 3.76 nM and the EC50 [14] is reported as 0.443 nM.

B5: PR000265, anti-PD-L1 91G3H5H3(D54E), hIgG1(N297A) (antibody, V domains shown)
VH: EVQLVESGGGLVQPGGSLRLSCAASGFTFSSYWMSWVRQAPGKGLEWVANIKQEGSEKYYVDSVKGRFTISRDNAKNSLYLQMNSLRAEDTAVYYCARDRAVAGAFDIWGQGTMVTVSS
VL: DIQMTQSPSTLSASVGDRVTVTCRASQSIYIWLAWYQQKPGKAPNLLIYKASSLETGVPSRFSGSGSGTEFTLTISSLQPDDFATYYCQQYYGSSRTFGQGTKVEIKR
Binder B5 has an EC50 [15] of 1.56 nM, an EC50 [16] of 0.781 nM and an EC50 [17] of 0.356 nM. It also gave an EC50 [18] of 1.26 nM.

B6: PR002067, anti-OX40 heavy-chain antibody R1026P079E12 (antibody, V domains shown)
VH: EVQLLESGGGLVQPGGSLRLSCAASGFTFSSYAMSWVRQAPGKGLEWVSAISGRGGSTFYADSVRGRFTISRDNSKNTLYLQMNSLRAEDTAMYYCVDGTTGTTDVDYWGQGTLVTVSS
In the case of B6, the EC50 [19] is reported as 17.8 nM and the EC50 [20] is reported as 0.232 nM.

B7: PR003555 (bispecific antibody)
light: DIQMTQSPSSLSASIGDRVTITCRASQSINSYLNWYQQKPGKAPKLLIYTASSLLSGVPSRFSASGSWTDFSLTISSLQPEDFATYYCQQSFSTPYTFGQGTNLEIKRTVAAPSVFIFPPSDEQLKSGTASVVCLLNNFYPREAKVQWKVDNALQSGNSQESVTEQDSKDSTYSLSSTLTLSKADYEKHKVYACEVTHQGLSSPVTKSFNRGEC
heavy: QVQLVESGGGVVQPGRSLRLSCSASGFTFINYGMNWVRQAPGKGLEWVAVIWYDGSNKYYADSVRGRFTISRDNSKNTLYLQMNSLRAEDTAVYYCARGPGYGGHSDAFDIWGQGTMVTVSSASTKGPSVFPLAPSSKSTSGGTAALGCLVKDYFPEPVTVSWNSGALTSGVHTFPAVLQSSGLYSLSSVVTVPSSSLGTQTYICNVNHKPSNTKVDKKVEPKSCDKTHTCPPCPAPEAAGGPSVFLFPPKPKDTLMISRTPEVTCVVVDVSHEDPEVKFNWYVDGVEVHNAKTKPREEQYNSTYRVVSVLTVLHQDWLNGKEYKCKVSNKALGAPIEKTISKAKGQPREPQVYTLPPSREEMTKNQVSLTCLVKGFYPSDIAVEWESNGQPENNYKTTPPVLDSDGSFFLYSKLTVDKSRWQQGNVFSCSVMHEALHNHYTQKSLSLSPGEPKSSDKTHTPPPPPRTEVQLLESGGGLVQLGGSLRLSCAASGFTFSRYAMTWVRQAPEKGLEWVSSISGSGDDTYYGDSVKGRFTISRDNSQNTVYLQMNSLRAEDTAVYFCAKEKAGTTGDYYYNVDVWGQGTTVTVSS
Work on B7 yielded an EC50 [1] of 0.802 nM and an EC50 [2] of 0.819 nM.

B8: PR004284 (bispecific antibody)
light: DIQMTQSPSSLSASIGDRVTITCRASQSINSYLNWYQQKPGKAPKLLIYTASSLLSGVPSRFSASGSWTDFSLTISSLQPEDFATYYCQQSFSTPYTFGQGTNLEIKRTVAAPSVFIFPPSDEQLKSGTASVVCLLNNFYPREAKVQWKVDNALQSGNSQESVTEQDSKDSTYSLSSTLTLSKADYEKHKVYACEVTHQGLSSPVTKSFNRGEC
heavy: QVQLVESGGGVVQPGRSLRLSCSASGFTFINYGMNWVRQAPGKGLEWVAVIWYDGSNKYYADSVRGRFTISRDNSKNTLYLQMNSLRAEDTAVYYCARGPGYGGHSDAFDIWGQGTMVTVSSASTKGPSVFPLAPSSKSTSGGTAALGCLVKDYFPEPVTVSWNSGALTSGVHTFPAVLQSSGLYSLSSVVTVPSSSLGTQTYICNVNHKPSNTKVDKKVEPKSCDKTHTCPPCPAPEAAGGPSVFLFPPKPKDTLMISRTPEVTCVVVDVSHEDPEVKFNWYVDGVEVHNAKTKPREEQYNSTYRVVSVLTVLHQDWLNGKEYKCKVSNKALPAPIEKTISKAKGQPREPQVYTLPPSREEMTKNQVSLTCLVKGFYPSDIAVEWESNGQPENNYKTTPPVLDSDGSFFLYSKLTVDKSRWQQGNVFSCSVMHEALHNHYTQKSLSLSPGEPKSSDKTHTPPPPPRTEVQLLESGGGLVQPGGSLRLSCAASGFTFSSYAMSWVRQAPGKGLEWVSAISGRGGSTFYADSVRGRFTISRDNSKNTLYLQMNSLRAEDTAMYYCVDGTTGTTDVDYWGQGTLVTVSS
Binder B8 has an EC50 [19] of 4.96 nM and an EC50 [21] of 6.7 nM.

B9: PR001331, anti-PSMA monoclonal antibody 2E8A1B1 hIgG1 (antibody, V domains shown)
VH: QVQLVESGGGVVQPGRSLRLSCSASGFTFINYGMNWVRQAPGKGLEWVAVIWYDGSNKYYADSVRGRFTISRDNSKNTLYLQMNSLRAEDTAVYYCARGPGYGGHSDAFDIWGQGTMVTVSS
VL: DIQMTQSPSSLSASIGDRVTITCRASQSINSYLNWYQQKPGKAPKLLIYTASSLLSGVPSRFSASGSWTDFSLTISSLQPEDFATYYCQQSFSTPYTFGQGTNLEIKR
B9 showed an EC50 [1] of 0.702 nM and an EC50 [21] of 2.58 nM.

B10: PR003556 (bispecific antibody)
light: DIQMTQSPSSLSASIGDRVTITCRASQSINSYLNWYQQKPGKAPKLLIYTASSLLSGVPSRFSASGSWTDFSLTISSLQPEDFATYYCQQSFSTPYTFGQGTNLEIKRTVAAPSVFIFPPSDEQLKSGTASVVCLLNNFYPREAKVQWKVDNALQSGNSQESVTEQDSKDSTYSLSSTLTLSKADYEKHKVYACEVTHQGLSSPVTKSFNRGEC
heavy: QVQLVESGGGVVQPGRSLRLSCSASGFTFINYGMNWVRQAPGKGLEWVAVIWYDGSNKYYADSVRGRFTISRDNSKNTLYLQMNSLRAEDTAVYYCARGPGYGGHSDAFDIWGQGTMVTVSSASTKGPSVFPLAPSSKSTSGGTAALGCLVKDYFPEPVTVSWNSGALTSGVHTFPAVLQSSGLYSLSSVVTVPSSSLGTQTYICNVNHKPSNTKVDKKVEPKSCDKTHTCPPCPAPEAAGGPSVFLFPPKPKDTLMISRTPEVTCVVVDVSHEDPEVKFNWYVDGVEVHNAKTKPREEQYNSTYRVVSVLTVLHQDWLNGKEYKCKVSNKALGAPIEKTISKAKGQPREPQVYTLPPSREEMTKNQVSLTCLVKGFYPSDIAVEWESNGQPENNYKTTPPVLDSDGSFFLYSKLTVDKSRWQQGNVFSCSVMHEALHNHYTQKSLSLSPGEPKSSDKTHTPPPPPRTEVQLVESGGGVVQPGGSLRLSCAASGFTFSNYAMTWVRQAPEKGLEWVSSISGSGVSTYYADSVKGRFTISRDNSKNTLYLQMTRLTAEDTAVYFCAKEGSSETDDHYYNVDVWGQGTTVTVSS
Binder B10 has an EC50 [1] of 0.687 nM and an EC50 [2] of 0.476 nM.

B11: Anti-OX40 monoclonal antibody vonlerolizumab analog (antibody, V domains shown)
VH: EVQLVQSGAEVKKPGASVKVSCKASGYTFTDSYMSWVRQAPGQGLEWIGDMYPDNGDSSYNQKFRERVTITRDTSTSTAYLELSSLRSEDTAVYYCVLAPRWYFSVWGQGTLVTVSS
VL: DIQMTQSPSSLSASVGDRVTITCRASQDISNYLNWYQQKPGKAPKLLIYYTSRLRSGVPSRFSGSGSGTDFTLTISSLQPEDFATYYCQQGHTLPPTFGQGTKVEIKR
B11 showed an EC50 [20] of 0.194 nM.

B12: PR003789 (bispecific antibody)
light: DIQMTQSPSTLSASVGDRVTVTCRASQSIYIWLAWYQQKPGKAPNLLIYKASSLETGVPSRFSGSGSGTEFTLTISSLQPDDFATYYCQQYYGSSRTFGQGTKVEIKRTVAAPSVFIFPPSDEQLKSGTASVVCLLNNFYPREAKVQWKVDNALQSGNSQESVTEQDSKDSTYSLSSTLTLSKADYEKHKVYACEVTHQGLSSPVTKSFNRGEC
heavy: EVQLVESGGGLVQPGGSLRLSCAASGFTFSSYWMSWVRQAPGKGLEWVANIKQEGSEKYYVDSVKGRFTISRDNAKNSLYLQMNSLRAEDTAVYYCARDRAVAGAFDIWGQGTMVTVSSASTKGPSVFPLAPSSKSTSGGTAALGCLVKDYFPEPVTVSWNSGALTSGVHTFPAVLQSSGLYSLSSVVTVPSSSLGTQTYICNVNHKPSNTKVDKKVEPKSCDKTHTCPPCPAPEAAGGPSVFLFPPKPKDTLMISRTPEVTCVVVDVSHEDPEVKFNWYVDGVEVHNAKTKPREEQYNSTYRVVSVLTVLHQDWLNGKEYKCKVSNKALGAPIEKTISKAKGQPREPQVYTLPPSREEMTKNQVSLTCLVKGFYPSDIAVEWESNGQPENNYKTTPPVLDSDGSFFLYSKLTVDKSRWQQGNVFSCSVMHEALHNHYTQKSLSLSPGAEPKSSDKTHTPPPPPEVQLLESGGGLVQPGGSLRLSCAASGFTFSSYAMSWVRQAPGKGLEWVSAISGRGGSTFYADSVRGRFTISRDNSKNTLYLQMNSLRAEDTAMYYCVDGTTGTTDVDYWGQGTLVTVSS
B12 gave an EC50 [19] of 3.98 nM and an EC50 [18] of 1.37 nM.
